± gives the standard deviation.
Test: protein stability index of a GFP-peptide fusion (GPS, HEK-293T) (PSI 1-6); higher = more stable
Settings: c terminus: a fixed tail appended
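Also: 24-mer peptide tiles fused after GFP, lentivirally expressed, FACS-sorted into six equal bins by GFP/DsRed ratio, decoded by Illumina sequencing, PSI is the read-weighted mean bin number.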

Sequence: GILEHVDSASPVEDTSNDESSILG [M1AP]
- protein stability index (treatment: DMSO): 5.56 ± 0.26
- protein stability index (treatment: MLN4924 1 uM, 8 h): 5.48 ± 0.4

Sequence: QQLRRGRYVEFNLLYDRGTKFGLF [CPOX]
- protein stability index (treatment: DMSO): 2.52 ± 0.51
- protein stability index (treatment: MLN4924 1 uM, 8 h): 2.56 ± 0.36

Sequence: QFFTKGYQETISDVLNDAIFDEDH [GCH1]
- protein stability index (treatment: DMSO): 4.01 ± 0.33
- protein stability index (treatment: MLN4924 1 uM, 8 h): 3.92 ± 0.07

Sequence: SMALTCTFNRWGTLLAVGCNDGRI [RBBP5]
- protein stability index (treatment: DMSO): 2.48 ± 0.33
- protein stability index (treatment: MLN4924 1 uM, 8 h): 2.35 ± 0.34

Sequence: PYFSPSASFHHKLHHKRLAKECML [CBY2]
- protein stability index (treatment: DMSO): 2.56 ± 0.11
- protein stability index (treatment: MLN4924 1 uM, 8 h): 2.5 ± 0.32

Sequence: KIKSEEIEITFSYWDGSGHRRTVK [FAM50A]
- protein stability index (treatment: DMSO): 2.27 ± 0.21
- protein stability index (treatment: MLN4924 1 uM, 8 h): 2.43 ± 0.16

Sequence: GYPPFCSETPQETYRKVMNWKETL [STK38L]
- protein stability index (treatment: DMSO): 2.88 ± 0.29
- protein stability index (treatment: MLN4924 1 uM, 8 h): 3.05 ± 0.37

Sequence: TFSLKTVLMIAIQLISRMEYVHSK [CSNK1G3]
- protein stability index (treatment: DMSO): 3.5 ± 0.67
- protein stability index (treatment: MLN4924 1 uM, 8 h): 3.16 ± 0.46

Sequence: LLHSRNEGVATYAAAVLFRMSEDK [CTNNB1]
- protein stability index (treatment: DMSO): 2.9 ± 0.36
- protein stability index (treatment: MLN4924 1 uM, 8 h): 3.22 ± 0.087

Sequence: RLRASFSRKPSLKGNREDSARMSA [PLEKHN1]
- protein stability index (treatment: DMSO): 4.08 ± 0.21
- protein stability index (treatment: MLN4924 1 uM, 8 h): 4.21 ± 0.078

Sequence: KEQDGREVDWEYFYGLLFTSENLK [DFFB]
- protein stability index (treatment: DMSO): 2.617 ± 0.019
- protein stability index (treatment: MLN4924 1 uM, 8 h): 2.93 ± 0.01

Sequence: RGLLEYFKAYIKIYQGEDLPHPKS [ATL3]
- protein stability index (treatment: DMSO): 3.18 ± 0.84
- protein stability index (treatment: MLN4924 1 uM, 8 h): 2.56 ± 0.88

Sequence: MAESLRSPRRSLYKLVGSPPWKEA [RPAIN]
- protein stability index (treatment: DMSO): 2.73 ± 0.48
- protein stability index (treatment: MLN4924 1 uM, 8 h): 2.77 ± 0.53

Sequence: QKELKKAQMAKAAAEERALFTDRM [WEE1]
- protein stability index (treatment: DMSO): 4.69 ± 0.19
- protein stability index (treatment: MLN4924 1 uM, 8 h): 4.67 ± 0.16

Sequence: PYQALRLWARGTWTQATGLGCALL [SOAT2]
- protein stability index (treatment: DMSO): 2.09 ± 0.46
- protein stability index (treatment: MLN4924 1 uM, 8 h): 2.05 ± 0.3

Sequence: VCVEHHTFFRLLLPEAPPKKFLTL [EPB41L3]
- protein stability index (treatment: MLN4924 1 uM, 8 h): 2.85 ± 0.42

Sequence: EQGLSALHLAAQGRHAQTVETLLR [RIPK4]
- protein stability index (treatment: DMSO): 3.71 ± 0.55
- protein stability index (treatment: MLN4924 1 uM, 8 h): 4.12 ± 0.23

Sequence: HRQSFGTNSDVLAQQFALMAPLLF [DCAF4]
- protein stability index (treatment: DMSO): 2.31 ± 0.28
- protein stability index (treatment: MLN4924 1 uM, 8 h): 2.36 ± 0.27

Sequence: KHAKKEREESLPNLLQYVRMPLLT [KLHL12]
- protein stability index (treatment: DMSO): 3.26 ± 0.26
- protein stability index (treatment: MLN4924 1 uM, 8 h): 3.28 ± 0.16

Sequence: PNRAGAPGESLECPAELRPQVPQP [TRAF3IP2]
- protein stability index (treatment: DMSO): 4.97 ± 0.16
- protein stability index (treatment: MLN4924 1 uM, 8 h): 5.07 ± 0.26

Sequence: KSSSLLTQTSEECNGILTEKMEEE [ZNF396]
- protein stability index (treatment: DMSO): 5.56 ± 0.15
- protein stability index (treatment: MLN4924 1 uM, 8 h): 5.54 ± 0.27

Sequence: QRARKEREKEDYLHLKRQPKRRWL [RHOBTB2]
- protein stability index (treatment: DMSO): 4.05 ± 0.23
- protein stability index (treatment: MLN4924 1 uM, 8 h): 4.16 ± 0.23

Sequence: RNHGILMETHKELKPLLSPSSETT [LYSMD4]
- protein stability index (treatment: DMSO): 4.49 ± 0.14
- protein stability index (treatment: MLN4924 1 uM, 8 h): 4.62 ± 0.3

Sequence: AALLILFAASLLTVFAWLLQYARG [C2CD2L]
- protein stability index (treatment: DMSO): 2.74 ± 0.46
- protein stability index (treatment: MLN4924 1 uM, 8 h): 3.15 ± 0.46

Sequence: RLEKAVAAAYTFLQRNPKHELTAK [P3H4]
- protein stability index (treatment: DMSO): 2.32 ± 0.12
- protein stability index (treatment: MLN4924 1 uM, 8 h): 2.49 ± 0.29

Sequence: ETLLGDPKRRMRYFDPLRNEYFFD [KCNA3]
- protein stability index (treatment: DMSO): 2.58 ± 0.37
- protein stability index (treatment: MLN4924 1 uM, 8 h): 2.79 ± 0.29

Sequence: CEHICVNSDDSYTCECLEGFRLAE [MATN2]
- protein stability index (treatment: DMSO): 4.11 ± 0.69
- protein stability index (treatment: MLN4924 1 uM, 8 h): 4.71 ± 0.62

Sequence: HDRNMDWVSTQLQATCNVHKSAFN [FADS1]
- protein stability index (treatment: DMSO): 3.22 ± 0.29
- protein stability index (treatment: MLN4924 1 uM, 8 h): 3.46 ± 0.2

Sequence: FMLLLIFFAFLHCWLNAFAEMLRF [SOAT2]
- protein stability index (treatment: DMSO): 3.07 ± 0.18
- protein stability index (treatment: MLN4924 1 uM, 8 h): 2.88 ± 0.57

Sequence: NGCEVKNRKSILSRHLNSQVKKTT [PHTF1]
- protein stability index (treatment: DMSO): 3.95 ± 0.24
- protein stability index (treatment: MLN4924 1 uM, 8 h): 4 ± 0.37

Sequence: NHGQVVSYLLKSGADKEILTTKGE [ANKRD40]
- protein stability index (treatment: DMSO): 4.08 ± 0.28
- protein stability index (treatment: MLN4924 1 uM, 8 h): 3.9 ± 0.26

Sequence: SQHCKPEEGLEARGEALGLVGAQA [MAGEA3]
- protein stability index (treatment: DMSO): 4.73 ± 0.2
- protein stability index (treatment: MLN4924 1 uM, 8 h): 4.73 ± 0.22

Sequence: VMLTLSDSKHVVLPVDDDSDLNVV [RBBP5]
- protein stability index (treatment: DMSO): 3.51 ± 0.14
- protein stability index (treatment: MLN4924 1 uM, 8 h): 3.49 ± 0.25

Sequence: LQQDFQNIQETHRLYRLKLEELTK [TMEM120A]
- protein stability index (treatment: DMSO): 3.3 ± 0.38
- protein stability index (treatment: MLN4924 1 uM, 8 h): 3.37 ± 0.28

From the supplement of paper PMC10567573
